Source: the supplement of paper PMC10065799, “High-throughput profiling of sequence recognition by tyrosine kinases and SH2 domains using bacterial peptide display” (eLife, 2023)

What was measured:
Grb2 SH2 = Grb2 SH2 (UniProt P62993); experiment: SH2 binding enrichment of the phosphorylated peptide, bacterial display (enrichment ratio); higher = better substrate or ligand; peptides without Tyr show the background
c-Src SH2 = experiment: as above
SHP2-C SH2 = experiment: as above
EPHB2 = EPHB2 (UniProt P29323); experiment: phosphorylation enrichment, bacterial display (enrichment ratio); higher = better substrate or ligand; peptides without Tyr show the background
EPHB1 = EPHB1 (UniProt P54762); experiment: as above
FGFR3 = FGFR3 (UniProt P22607); experiment: as above
MERTK = MERTK (UniProt Q12866); experiment: as above
c-Src = experiment: as above
c-Abl (mouse) = experiment: as above
Hck = Hck (UniProt P08631); experiment: as above
Jak2 = Jak2 (UniProt O60674); experiment: as above
Fes = Fes (UniProt P07332); experiment: as above
Fyn = Fyn (UniProt P06241); experiment: as above
Fer (mouse) = experiment: as above
AncSZ = experiment: as above
FGFR1 = FGFR1 (UniProt P11362); experiment: as above
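Wherever SH2 binding enrichment of the phosphorylated peptide, bacterial display is given: peptide library displayed on the E. coli surface as eCPX fusions, selected cells deep-sequenced, score is each peptide's frequency after selection divided by its frequency in the input.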
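Wherever phosphorylation enrichment, bacterial display is given: 11-residue human phosphosite peptides and single-mutation variants displayed on the E. coli surface, counted by deep sequencing, each peptide's frequency after selection divided by its frequency in the unselected input library; frequency after pTyr selection over input frequency; kinase dosed for 20-30% of maximal phosphorylation in three min.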

Sequence of Jak2 (O60674 whole entry, looked up): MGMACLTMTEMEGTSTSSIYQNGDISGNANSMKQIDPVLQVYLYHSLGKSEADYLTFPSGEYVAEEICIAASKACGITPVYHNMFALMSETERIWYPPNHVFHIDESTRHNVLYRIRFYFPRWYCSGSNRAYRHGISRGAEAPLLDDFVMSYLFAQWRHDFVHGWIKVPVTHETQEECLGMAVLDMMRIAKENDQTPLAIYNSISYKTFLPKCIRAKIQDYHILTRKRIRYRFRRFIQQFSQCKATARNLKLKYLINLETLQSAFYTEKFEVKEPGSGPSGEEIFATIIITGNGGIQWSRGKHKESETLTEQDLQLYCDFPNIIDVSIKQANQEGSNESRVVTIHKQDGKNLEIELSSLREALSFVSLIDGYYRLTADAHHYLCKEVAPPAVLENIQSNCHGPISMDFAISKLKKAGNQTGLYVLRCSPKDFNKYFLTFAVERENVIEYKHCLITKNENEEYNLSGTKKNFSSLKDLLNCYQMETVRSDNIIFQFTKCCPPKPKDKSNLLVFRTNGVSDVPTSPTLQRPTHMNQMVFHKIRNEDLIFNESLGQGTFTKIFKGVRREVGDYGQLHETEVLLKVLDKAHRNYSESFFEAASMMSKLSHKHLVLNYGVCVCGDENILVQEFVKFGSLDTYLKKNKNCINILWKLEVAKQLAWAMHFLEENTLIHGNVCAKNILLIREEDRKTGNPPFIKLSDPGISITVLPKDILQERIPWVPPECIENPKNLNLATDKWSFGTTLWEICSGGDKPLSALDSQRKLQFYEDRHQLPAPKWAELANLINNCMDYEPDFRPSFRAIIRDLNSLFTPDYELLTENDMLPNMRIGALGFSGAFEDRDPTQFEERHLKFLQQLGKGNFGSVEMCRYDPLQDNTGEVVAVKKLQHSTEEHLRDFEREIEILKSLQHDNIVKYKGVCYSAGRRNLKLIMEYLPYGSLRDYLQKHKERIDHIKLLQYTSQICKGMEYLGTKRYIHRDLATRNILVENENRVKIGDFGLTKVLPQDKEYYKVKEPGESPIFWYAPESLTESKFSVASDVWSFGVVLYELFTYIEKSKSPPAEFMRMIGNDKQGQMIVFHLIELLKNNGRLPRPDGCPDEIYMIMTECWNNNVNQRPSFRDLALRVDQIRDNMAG
Sequence of Grb2 SH2 (P62993 whole entry, looked up): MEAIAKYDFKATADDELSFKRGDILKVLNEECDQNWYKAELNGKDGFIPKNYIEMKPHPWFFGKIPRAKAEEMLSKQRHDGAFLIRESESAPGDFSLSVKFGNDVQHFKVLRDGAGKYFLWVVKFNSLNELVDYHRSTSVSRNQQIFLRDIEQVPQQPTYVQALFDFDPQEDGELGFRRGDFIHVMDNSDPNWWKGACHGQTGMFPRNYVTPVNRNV
Sequence of FGFR1 (P11362 whole entry, looked up, the tested form may be a part): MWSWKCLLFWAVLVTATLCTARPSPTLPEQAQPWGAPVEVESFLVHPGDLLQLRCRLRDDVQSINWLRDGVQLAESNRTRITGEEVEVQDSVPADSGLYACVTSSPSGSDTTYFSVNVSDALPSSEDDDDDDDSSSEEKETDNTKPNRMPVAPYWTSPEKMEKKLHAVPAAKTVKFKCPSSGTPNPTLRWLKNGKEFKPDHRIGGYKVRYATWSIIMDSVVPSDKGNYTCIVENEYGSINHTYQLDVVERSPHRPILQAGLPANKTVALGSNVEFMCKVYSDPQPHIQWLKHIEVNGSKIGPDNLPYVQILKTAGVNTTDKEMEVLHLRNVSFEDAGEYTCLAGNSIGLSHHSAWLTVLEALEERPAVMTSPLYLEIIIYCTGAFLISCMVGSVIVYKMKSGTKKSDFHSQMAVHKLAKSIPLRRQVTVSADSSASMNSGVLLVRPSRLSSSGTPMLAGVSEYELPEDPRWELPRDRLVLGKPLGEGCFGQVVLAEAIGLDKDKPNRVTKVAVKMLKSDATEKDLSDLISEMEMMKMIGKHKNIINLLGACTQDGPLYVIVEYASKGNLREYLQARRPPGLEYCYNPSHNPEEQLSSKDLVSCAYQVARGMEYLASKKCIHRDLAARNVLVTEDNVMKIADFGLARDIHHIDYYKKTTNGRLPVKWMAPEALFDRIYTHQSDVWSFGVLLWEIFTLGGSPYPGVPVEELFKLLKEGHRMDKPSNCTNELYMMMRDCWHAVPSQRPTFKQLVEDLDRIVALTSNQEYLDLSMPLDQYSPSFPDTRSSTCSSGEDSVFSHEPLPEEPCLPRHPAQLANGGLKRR
Sequence of EPHB1 (P54762 whole entry, looked up): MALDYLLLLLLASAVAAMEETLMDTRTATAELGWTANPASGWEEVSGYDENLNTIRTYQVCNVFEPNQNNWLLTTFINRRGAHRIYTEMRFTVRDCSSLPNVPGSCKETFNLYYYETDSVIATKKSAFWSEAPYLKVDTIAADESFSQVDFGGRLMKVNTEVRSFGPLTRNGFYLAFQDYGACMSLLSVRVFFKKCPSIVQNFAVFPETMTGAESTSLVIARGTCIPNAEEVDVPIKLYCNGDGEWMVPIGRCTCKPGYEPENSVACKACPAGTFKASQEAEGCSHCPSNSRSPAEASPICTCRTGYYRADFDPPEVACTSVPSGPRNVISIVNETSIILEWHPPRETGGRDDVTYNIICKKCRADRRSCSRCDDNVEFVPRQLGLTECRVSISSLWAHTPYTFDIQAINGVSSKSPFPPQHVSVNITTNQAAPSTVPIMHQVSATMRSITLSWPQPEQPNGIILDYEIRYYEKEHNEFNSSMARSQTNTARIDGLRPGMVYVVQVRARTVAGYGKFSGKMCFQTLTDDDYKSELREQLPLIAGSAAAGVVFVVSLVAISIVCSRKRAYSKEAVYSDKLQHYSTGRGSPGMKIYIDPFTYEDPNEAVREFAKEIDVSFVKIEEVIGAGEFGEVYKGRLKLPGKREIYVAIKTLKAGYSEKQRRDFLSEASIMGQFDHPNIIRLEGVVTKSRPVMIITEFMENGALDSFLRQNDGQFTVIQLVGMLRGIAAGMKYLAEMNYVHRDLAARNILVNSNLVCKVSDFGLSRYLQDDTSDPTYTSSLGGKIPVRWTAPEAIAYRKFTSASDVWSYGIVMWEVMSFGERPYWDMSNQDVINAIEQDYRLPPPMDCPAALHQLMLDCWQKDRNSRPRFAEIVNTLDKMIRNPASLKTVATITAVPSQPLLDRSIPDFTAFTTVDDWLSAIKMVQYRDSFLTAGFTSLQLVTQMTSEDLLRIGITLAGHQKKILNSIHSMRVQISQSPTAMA
Sequence of MERTK (Q12866 whole entry, looked up): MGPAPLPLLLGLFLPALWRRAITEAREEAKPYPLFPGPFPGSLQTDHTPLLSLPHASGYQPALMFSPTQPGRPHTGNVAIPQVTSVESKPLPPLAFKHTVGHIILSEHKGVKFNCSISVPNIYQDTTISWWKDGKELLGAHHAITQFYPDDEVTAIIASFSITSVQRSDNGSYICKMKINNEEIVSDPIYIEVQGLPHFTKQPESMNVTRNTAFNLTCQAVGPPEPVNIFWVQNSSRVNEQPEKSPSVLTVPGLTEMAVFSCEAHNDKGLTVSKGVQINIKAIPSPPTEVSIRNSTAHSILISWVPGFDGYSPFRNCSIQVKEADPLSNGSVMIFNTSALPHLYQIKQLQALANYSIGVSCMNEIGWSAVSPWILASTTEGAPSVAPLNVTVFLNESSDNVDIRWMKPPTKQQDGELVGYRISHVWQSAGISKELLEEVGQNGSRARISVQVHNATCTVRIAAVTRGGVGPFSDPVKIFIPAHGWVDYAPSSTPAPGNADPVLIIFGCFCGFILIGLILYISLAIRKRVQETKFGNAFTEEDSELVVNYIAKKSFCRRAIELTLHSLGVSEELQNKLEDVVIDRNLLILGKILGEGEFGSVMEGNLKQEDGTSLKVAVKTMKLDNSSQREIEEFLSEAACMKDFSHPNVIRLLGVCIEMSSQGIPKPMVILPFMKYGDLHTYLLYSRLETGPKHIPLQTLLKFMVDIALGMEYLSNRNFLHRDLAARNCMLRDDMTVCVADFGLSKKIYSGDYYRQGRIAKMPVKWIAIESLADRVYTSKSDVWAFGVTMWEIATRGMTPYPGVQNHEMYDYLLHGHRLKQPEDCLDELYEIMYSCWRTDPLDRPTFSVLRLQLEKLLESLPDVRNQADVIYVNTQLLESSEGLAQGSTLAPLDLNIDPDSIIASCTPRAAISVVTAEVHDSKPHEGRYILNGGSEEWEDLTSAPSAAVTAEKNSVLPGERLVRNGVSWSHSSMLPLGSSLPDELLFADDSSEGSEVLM
Sequence of Hck (P08631 whole entry, looked up): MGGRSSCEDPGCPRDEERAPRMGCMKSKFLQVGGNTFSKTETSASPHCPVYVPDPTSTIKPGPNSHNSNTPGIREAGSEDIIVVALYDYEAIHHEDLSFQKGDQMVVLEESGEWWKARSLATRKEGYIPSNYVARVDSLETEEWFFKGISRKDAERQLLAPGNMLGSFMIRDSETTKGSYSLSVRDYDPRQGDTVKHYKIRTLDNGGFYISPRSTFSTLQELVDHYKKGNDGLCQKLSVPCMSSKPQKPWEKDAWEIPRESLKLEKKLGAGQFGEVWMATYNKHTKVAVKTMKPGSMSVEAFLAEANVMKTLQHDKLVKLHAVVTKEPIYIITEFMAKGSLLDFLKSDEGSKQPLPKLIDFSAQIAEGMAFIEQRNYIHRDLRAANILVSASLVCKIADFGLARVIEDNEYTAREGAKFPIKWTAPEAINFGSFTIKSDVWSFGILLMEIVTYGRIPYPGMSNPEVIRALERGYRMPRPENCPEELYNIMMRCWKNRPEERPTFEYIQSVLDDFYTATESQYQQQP

Row | Sequence | SH2 binding enrichment (Grb2 SH2) | SH2 binding enrichment (c-Src SH2) | SH2 binding enrichment (SHP2-C SH2) | phosphorylation enrichment (EPHB2) | phosphorylation enrichment (EPHB1) | phosphorylation enrichment (FGFR3) | phosphorylation enrichment (MERTK) | phosphorylation enrichment (c-Src) | phosphorylation enrichment (c-Abl (mouse)) | phosphorylation enrichment (Hck) | phosphorylation enrichment (Jak2) | phosphorylation enrichment (Fes) | phosphorylation enrichment (Fyn) | phosphorylation enrichment (Fer (mouse)) | phosphorylation enrichment (AncSZ) | phosphorylation enrichment (FGFR1)
1 | EEGNPYYSGAR [MCCC2_Y520_S523G] | 0.9 | 0.714 | 0.538 | 0.551 | 0.409 | 0.552 | 0.449 | 1.83 | 0.597 | 1.01 | 0.719 | 0.917 | 0.959 | 0.425 | 0.898 | 0.542
2 | EEGRVYVYHLS [ITGAE_Y549_R552H] | 0.701 | 0.438 | 0.897 | 0.491 | 0.576 | 0.75 | 0.449 | 0.828 | 0.713 | 0.519 | 0.998 | 1.22 | 0.64 | 0.756 | 1.13 | 0.58
3 | EEQKKNFNAMK [SCN5A_Y1494_Y1494N_YF] | 0.895 | 0.474 | 0.644 | 0.494 | 0.381 | 0.546 | 0.409 | 0.385 | 0.607 | 0.512 | 0.691 | 0.711 | 0.376 | 0.369 | 0.908 | 0.38
4 | EEVGIYRMSGV [BCR_Y1089_V1091M] | 0.744 | 0.431 | 0.957 | 0.502 | 0.55 | 0.612 | 0.647 | 6.23 | 9.58 | 5.64 | 1.12 | 0.921 | 6.38 | 0.535 | 0.925 | 0.556
5 | EEVKAYLDFRE [CHAC2_Y78] | 0.651 | 0.33 | 0.556 | 0.765 | 0.652 | 0.865 | 0.524 | 0.59 | 0.867 | 0.601 | 1.35 | 1.44 | 0.605 | 0.651 | 1.2 | 0.584
6 | EFLQKYKGFKI [SYNE1_Y6953_YF] | 0.95 | 0.346 | 0.732 | 0.477 | 0.372 | 0.491 | 0.395 | 0.397 | 0.549 | 0.411 | 0.775 | 0.752 | 0.376 | 0.433 | 0.773 | 0.393
7 | EFNLMYDGAKE [IRF6_Y97_T100A] | 0.965 | 0.626 | 0.684 | 0.576 | 0.593 | 0.845 | 0.517 | 0.584 | 0.857 | 0.702 | 1.13 | 1.29 | 0.594 | 0.593 | 1.35 | 0.652
8 | EHEALYLEADL [CENPF_Y1920] | 0.845 | 0.57 | 0.56 | 0.84 | 0.57 | 1.8 | 0.77 | 0.986 | 0.938 | 0.715 | 1.12 | 1.34 | 0.653 | 1.2 | 1.66 | 1.73
9 | EIIPFYGMSSF [FNDC3B_Y175_T179S_YF] | 0.652 | 4.4 | 0.592 | 0.916 | 0.764 | 0.786 | 1.54 | 0.822 | 0.865 | 1.15 | 0.772 | 0.995 | 1.06 | 1.46 | 1.06 | 0.497
10 | EIVFVYVKKRS [DNAI2_Y7_YF] | 0.995 | 0.516 | 0.833 | 0.476 | 0.373 | 0.467 | 0.296 | 0.386 | 0.585 | 0.456 | 1.34 | 1.05 | 0.341 | 0.593 | 0.995 | 0.498
11 | EKMWTYMRSAE [GRIA4_Y695] | 0.842 | 0.442 | 0.726 | 0.62 | 0.573 | 0.602 | 0.299 | 0.404 | 0.81 | 0.432 | 0.836 | 1.01 | 0.433 | 0.359 | 1.04 | 0.409
12 | EKSREYDRLFE [PIK3R1_Y463_YF] | 0.809 | 13.5 | 0.991 | 0.602 | 0.457 | 0.577 | 0.453 | 0.5 | 0.784 | 0.522 | 0.935 | 0.993 | 0.448 | 0.437 | 0.929 | 0.434
13 | ELTAKYLNFFR [P3H4_Y181_Q186R_YF] | 2.78 | 0.832 | 1.14 | 0.425 | 0.414 | 0.513 | 0.435 | 0.366 | 0.574 | 0.456 | 0.632 | 0.778 | 0.444 | 0.335 | 0.684 | 0.394
14 | ELTAKYLNYYQ [P3H4_Y181] | 2.21 | 1.38 | 1.03 | 0.642 | 0.705 | 0.71 | 0.977 | 0.492 | 0.564 | 0.493 | 0.715 | 0.802 | 0.407 | 0.445 | 0.781 | 0.683
15 | ENAGFYFQVSA | 0.629 | 0.537 | 0.658 | 0.493 | 0.483 | 0.721 | 0.333 | 0.347 | 0.797 | 0.304 | 1.3 | 1.15 | 0.329 | 0.474 | 1.08 | 0.416
16 | ENELTYFCCKK [CD59_Y86_YF] | 0.975 | 0.711 | 0.935 | 0.543 | 0.465 | 0.711 | 0.703 | 2.21 | 0.737 | 1.18 | 2.65 | 1.04 | 1.08 | 0.478 | 1.32 | 0.867
